The source of these data is patent US20100298202A1, “BRI POLYPEPTIDES AND REDUCING AB AGGREGATION” (MAYO FOUNDATION FOR MEDICAL EDUCATION AND RESEARCH, priority 2007, published 2010).

This assay concerns the target Aβ42 (Homo sapiens, UniProt P05067). In words: Aβ42 aggregation with oxidized or reduced BRI polypeptides (native gel/western blot, ELISA-based assay). It is filed as biochemical. Particulars: oxidized form (no DTT), 2 μM polypeptide, 1.5 μM Aβ42, 5 hours at 37° C. The method, then: FIG. 10. […] BRI polypeptides in DMSO were diluted into 150 mM NaCl, 20 mM Tris-HCl, pH7.4 (TBS) at a final concentration of 2 μM in the absence (OX) or presence (RED) of 2 mM DTT. Mixtures were incubated for 10 minutes at room temperature and then chilled to 0° C. A control samples lacking any BRI polypeptide were prepared identically using DMSO alone. Aβ42 in DMSO then was added to a final concentration of 1.5 μM, and the mixtures divided into two aliquots. One aliquot was incubated for 5 hours at 0° C., and the other was incubated at 37° C. to induce Aβ42 aggregation. At the end of the incubation, all samples were returned to 0° C. to stop further aggregation prior to analysis. Aggregation was assessed either by native gel electrophoresis followed by western blotting (panel A) or by the ELISA-based assay (panel B).
(In general: In western blotting, separated proteins are transferred to a membrane and probed.)

Sequence of Aβ42 (P05067 672-713 limits assumed): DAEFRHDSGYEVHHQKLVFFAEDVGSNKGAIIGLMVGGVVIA

Regarding “Bri24: C-terminal fragment of BRI1 (ITM2A), AIDKCWKIRHFPNEFIVETICICQD (SEQ ID NO: 5)”, the “Aβ42 aggregation in vitro” value is listed as “inhibit Aβ42 aggregation”.

Turning to “Bri25: C-terminal fragment of BRI3 (ITM2C), GAICNCNAIRHFENTFVVETLICGVV (SEQ ID NO: 6)”, the “Aβ42 aggregation in vitro” value is on record as “inhibit Aβ42 aggregation”.
